Source: publication PMC5762396 (Archives of biochemistry and biophysics, 2017)

B1: Tmod2_(1-346) (domain or fragment)
chain: MALPFQKGLEKYKNIDEDELLGKLSEEELKQLENVLDDLDPESATLPAGFRQKDQTQKAATGPFDREHLLMYLEKEALEQKDREDFVPFTGEKKGRVFIPKEKPVETRKEEKVTLDPELEEALASASDTELYDLAAVLGVHNLLNNPKFDEETTNGEGRKGPVRNVVKGEKAKPVFEEPPNPTNVEASLQQMKANDPSLQEVNLNNIKNIPIPTLKEFAKSLETNTHVKKFSLAATRSNDPVALAFAEMLKVNKTLKSLNVESNFITGTGILALVEALRENDTLTEIKIDNQRQQLGTAVEMEIAQMLEENSRILKFGYQFTKQGPRTRVAAAITKNNDLVRKKRV
B2: Tmod2[L73D] (natural protein)
chain: MALPFQKGLEKYKNIDEDELLGKLSEEELKQLENVLDDLDPESATLPAGFRQKDQTQKAATGPFDREHLLMYDEKEALEQKDREDFVPFTGEKKGRVFIPKEKPVETRKEEKVTLDPELEEALASASDTELYDLAAVLGVHNLLNNPKFDEETTNGEGRKGPVRNVVKGEKAKPVFEEPPNPTNVEASLQQMKANDPSLQEVNLNNIKNIPIPTLKEFAKSLETNTHVKKFSLAATRSNDPVALAFAEMLKVNKTLKSLNVESNFITGTGILALVEALRENDTLTEIKIDNQRQQLGTAVEMEIAQMLEENSRILKFGYQFTKQGPRTRVAAAITKNNDLVRKKRVEGDRR

Molecular target: G-actin (WT α-skeletal muscle actin from chicken) (chicken, UniProt P68139 1-377)
Assay: atomic force microscopy

Binder | peak value of unbinding force [pN]
B1 | 64 ± 3.6
B2 | 105 ± 2.2
